Measured values taken from patent US20230151091A1 (NEW YORK UNIVERSITY, published 2023).

Columns and labels:
[1] = biological target: T1, mouse MuSK (mouse, UniProt Q61006 22-494, limits assumed); assay: Biacore T200, off rate at pH 5.5 against pH 7.4
T1 construct: Coated on ELISA plates or on the Biacore chip; also called full length mouse MuSK; mouse MuSK (in house produced in HEK293 cells)
T1 sequence (looked up): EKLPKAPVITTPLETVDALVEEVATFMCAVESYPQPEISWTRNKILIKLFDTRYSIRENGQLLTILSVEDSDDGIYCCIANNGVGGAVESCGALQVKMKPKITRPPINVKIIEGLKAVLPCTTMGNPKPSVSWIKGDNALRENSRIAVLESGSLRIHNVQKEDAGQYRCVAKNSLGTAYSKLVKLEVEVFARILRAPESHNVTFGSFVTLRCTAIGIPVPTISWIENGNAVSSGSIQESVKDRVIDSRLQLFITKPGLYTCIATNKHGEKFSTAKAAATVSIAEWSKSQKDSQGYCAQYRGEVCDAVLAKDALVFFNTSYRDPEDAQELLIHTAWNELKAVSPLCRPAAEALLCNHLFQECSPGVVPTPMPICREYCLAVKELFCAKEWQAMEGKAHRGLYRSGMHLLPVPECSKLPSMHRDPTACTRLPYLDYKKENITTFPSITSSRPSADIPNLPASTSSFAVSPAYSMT
Method: (§1) In order to study pH dependent binding of the antibodies described herein to MuSK, a Biacore T200 was used. Briefly, a CMS chip was coated with human and mouse MuSK (200RU) and 22.2 nM of Fab was applied and kinetic parameters calculated. Association was done at pH7.4, dissociation was done at pH 7.4 and also at pH 5.5. The following Fabs were tested, X2, X2m4, X3, X9, X17, 3B2 and 3B2g2m1 (Table 10 and FIG. 23). […] Binding affinity at pH 5.5 is very low, resulting in a rapid dissociation at endosomal pH allowing 3B2g2m1 to recycle.

[2] = biological target: T2, human MuSK (human, UniProt O15146 24-495); assay: Biacore T200, off rate at pH 5.5 against pH 7.4
T2 construct: Recombinant protein coated on ELISA plates (R&D Systems cat. 10189-MK) or on the Biacore chip; also called human muscle-specific tyrosine protein kinase; full length human MuSK
T2 sequence: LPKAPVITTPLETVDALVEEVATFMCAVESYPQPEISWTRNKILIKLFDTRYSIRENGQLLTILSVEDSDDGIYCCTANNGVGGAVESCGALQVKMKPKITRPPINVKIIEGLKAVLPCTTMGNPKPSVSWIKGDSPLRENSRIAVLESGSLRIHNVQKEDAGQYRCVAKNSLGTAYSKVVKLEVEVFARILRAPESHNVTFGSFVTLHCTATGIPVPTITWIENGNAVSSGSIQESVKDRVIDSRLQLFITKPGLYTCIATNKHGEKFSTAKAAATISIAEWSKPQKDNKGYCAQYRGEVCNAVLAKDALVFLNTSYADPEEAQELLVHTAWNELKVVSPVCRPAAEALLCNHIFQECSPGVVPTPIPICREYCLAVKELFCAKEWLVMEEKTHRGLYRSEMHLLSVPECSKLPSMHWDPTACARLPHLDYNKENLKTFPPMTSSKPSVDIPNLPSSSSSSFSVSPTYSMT
Method: as §1

[3] = biological target: T1, mouse MuSK; assay: Biacore T200, MuSK on chip (200RU), 22.2 nM Fab, dissociation pH 7.4
Method: as §1

[4] = biological target: T2, human MuSK; assay: as above
Method: as §1

[5] = biological target: T1, mouse MuSK; assay: Biacore T200, MuSK on chip (200RU), 22.2 nM Fab, dissociation pH 5.5
Method: as §1

[6] = biological target: T2, human MuSK; assay: as above
Method: as §1

[7] = biological target: T1, mouse MuSK; assay: Biacore, MuSK on chip (200RU), Fab dilution series
From the text: (§2) For affinity determination, a CMS chip was coated with either human or mouse MuSK (200RU) and a dilution series of the antibodies (mAbs and Fabs) was applied in order to be able to calculate the affinity.

[8] = biological target: T2, human MuSK; assay: Biacore, MuSK on chip (200RU), Fab dilution series
From the text: as §2

[9] = biological target: T2, human MuSK; assay: ELISA, plate coated with human MuSK at 0.2 µg/ml, dilution series of mAb, goat anti human Fc-HRP and TMB, OD 620 nm (8 min)
Method: An ELISA plate was coated with human MuSK (R&D Systems, cat. 10189-MK) or mouse MuSK (in house produced in HEK293 cells) at 0.2 μg/ml. After washing and blocking the plate, a dilution series of the anti-MuSK antibodies was applied and allowed to bind for 2 hours at room temperature. […] OD at 620 nm was measured with a 96 well ELISA plate reader.

[10] = biological target: T3, hECD: full-length extracellular region of human MuSK (E22 to T495) with C-terminal Avi- and His6-tags (human, UniProt O15146 22-495, biotinylated in vitro using the BirA enzyme); assay: bead-binding titration, Fab format: antigen immobilized on streptavidin beads, MFI by flow cytometry, curve is the 1:1 fit
T3 construct: also called human ECD; not shown: Avi- and His6-tags
T3 sequence: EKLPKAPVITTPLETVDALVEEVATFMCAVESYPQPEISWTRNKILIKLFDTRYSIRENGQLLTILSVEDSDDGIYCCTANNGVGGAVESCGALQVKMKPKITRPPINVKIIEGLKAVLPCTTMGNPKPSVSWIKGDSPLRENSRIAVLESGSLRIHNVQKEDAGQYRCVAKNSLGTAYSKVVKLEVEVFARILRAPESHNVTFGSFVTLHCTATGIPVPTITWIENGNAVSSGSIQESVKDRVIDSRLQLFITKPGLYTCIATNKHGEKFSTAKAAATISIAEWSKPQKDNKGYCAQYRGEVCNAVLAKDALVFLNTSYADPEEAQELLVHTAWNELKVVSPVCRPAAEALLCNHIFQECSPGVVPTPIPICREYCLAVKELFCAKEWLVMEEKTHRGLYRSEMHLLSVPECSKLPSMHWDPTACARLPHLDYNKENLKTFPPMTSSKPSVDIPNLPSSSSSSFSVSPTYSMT

[11] = biological target: T4, mECD: full-length extracellular region of mouse MuSK (E22 to T494) with C-terminal Avi- and His6-tags (mouse, UniProt Q61006 22-494, biotinylated in vitro using the BirA enzyme); assay: as above
T4 construct: range 22-494; also called mouse ECD; not shown: Avi- and His6-tags
T4 sequence (looked up): T1 sequence (looked up)

[12] = biological target: T5, hFz: Fz domain and C-terminal flanking sequence of human MuSK (K314-T495) with C-terminal Avi- and His6-tags (human, UniProt O15146 314-495, biotinylated in vitro using the BirA enzyme); assay: as above
T5 construct: also called human Fz; not shown: Avi- and His6-tags
T5 sequence: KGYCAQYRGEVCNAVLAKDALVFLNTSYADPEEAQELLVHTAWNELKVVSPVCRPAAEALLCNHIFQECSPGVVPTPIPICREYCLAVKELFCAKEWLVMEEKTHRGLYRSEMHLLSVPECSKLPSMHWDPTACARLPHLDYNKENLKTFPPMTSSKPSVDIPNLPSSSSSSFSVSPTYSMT

[13] = biological target: T6, mFz: Fz domain and C-terminal flanking sequence of mouse MuSK (D307 to T494) with C-terminal Avi- and … (mouse, UniProt Q61006 307-494, limits assumed, biotinylated in vitro using the BirA enzyme); assay: as above
T6 construct: also called mouse Fz; not shown: Avi- and His6-tags
T6 sequence (looked up): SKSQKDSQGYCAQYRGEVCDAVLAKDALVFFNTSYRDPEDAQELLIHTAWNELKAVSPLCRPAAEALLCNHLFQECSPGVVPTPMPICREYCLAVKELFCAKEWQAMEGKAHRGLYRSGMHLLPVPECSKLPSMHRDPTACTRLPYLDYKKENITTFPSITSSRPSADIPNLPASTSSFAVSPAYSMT

[14] = biological target: T3, hECD: full-length extracellular region …; assay: bead-binding assay, Fab format: biotinylated antigen on streptavidin beads, flow cytometry, 1:1 fit; average ± s.d., n=3
[15] = biological target: T4, mECD: full-length extracellular region …; assay: as above
[16] = biological target: T5, hFz: Fz domain and C-terminal flanking …; assay: as above
[17] = biological target: T6, mFz: Fz domain and C-terminal flanking …; assay: as above

B1: 3B2 Fab (Fab, V domains shown)
VH: ELQLVESGGGLVQPGGSLRLSCAASGFTFDDYGMSWVRQAPGKGLEWVSAIPWNGGSTYYKESVKGRFTISRDNAKKTLYLQMNSLKSEDTAVYYCAKRSGRIAFGALDAWGQGTLVTVSS
VL: QAVVTQEPSLSVSPGGTVTLTCGLSSGSVTSSNYPDWYQQTPGQAPRGLIYSTDSRHSGVPSRFSGSISGNKAALTITGAQSEDEADYYCGLYMYSGSKNYVFGGGTKLTVL
notes: Fab format; also called Fab 3B2
[1]
  Ratio pH 5.5/7.4 of off rate: 31.5
[2]
  Ratio pH 5.5/7.4 of off rate: 5.8
[3]
  koff: 0.00347 s⁻¹
[4]
  koff: 0.00388 s⁻¹
[5]
  koff: 0.109 s⁻¹
[6]
  koff: 0.0224 s⁻¹
[7]
  Kd: 1.52 nM
[8]
  Kd: 3.18 nM

B2: 14D10 (antibody, V domains shown)
VH: B1 VH
VL: QAVVTQEPSLSVSPGGTVTLTCGLSSGSVTSSNYPDWYQQTPGQAPRTLIYTTNSRHSGVPSRFSGSISGNKAALTITGAQPEDEADYYCALYMGGGSNVYVFG
notes: human IgG1 with the LALA mutations (L234A, L235A); produced in HEK293 cells
[9]
  EC50 (read off the curve): ~0.04 µg/mL

B3: 17H10 (antibody, V domains shown)
VH: QVQVQESGPGLVKPSQTLSLTCTVSGGSITARYYSWSWIRQPPGKGLEWMGVIAYDGSTYYSPSLKSRTSISRDTSKNQFSLHLSSVTPDDTAVYYCARGSSRVAAAFDSWGQGTQVTVSS
VL: SYELTQSPSVSVALRQTAKITCGGNRIGGKSVQWYQQKPGQAPMLVIYADSRRPSGIPERFTGSNSGNTATLTITGAQAEDEADYYCHVWGSTASADFGGGTHLTVL
notes: as for B2
[9]
  EC50 (read off the curve): ~0.02 µg/mL

B4: X1 Fab (Fab, V domains shown)
VH: EVQLVESGGGLVQPGGSLRLSCAASGFTFSSSSIHWVRQAPGKGLEWVASISSSSGSTSYADSVKGRFTISADTSKNTAYLQMNSLRAEDTAVYYCARKYWSQYYWAHYYGGLDYWGQGTLVTVSS
VL: DIQMTQSPSSLSASVGDRVTITCRASQSVSSAVAWYQQKPGKAPKLLIYSASSLYSGVPSRFSGSRSGTDFTLTISSLQPEDFATYYCQQSSSSLITFGQGTKVEIK
notes: m52 is the same Fab tetramerized with streptavidin; also called Fab Clone X1 (monovalent Fab format)
[10]
  EC50 (read off the curve): ~0.5 nM
[11]
  EC50 (read off the curve): ~1 nM
[12]
  EC50 (read off the curve): ~0.4 nM
[13]
  EC50 (read off the curve): ~1 nM
[14]
  Kd: 0.55 nM
[15]
  Kd: 1.34 nM
[16]
  Kd: 0.39 nM
[17]
  Kd: 1.09 nM
